One substance from PMC4672726 can be followed below.

The target in this assay is hemagglutinin (HA)–tagged FERONIA (FER-HA) (Arabidopsis thaliana) (UniProt Q9SCZ4). Kind of assay: co-IP.
Sequence of hemagglutinin (HA)–tagged FERONIA (FER-HA) (Arabidopsis thaliana) (Q9SCZ4 28-895): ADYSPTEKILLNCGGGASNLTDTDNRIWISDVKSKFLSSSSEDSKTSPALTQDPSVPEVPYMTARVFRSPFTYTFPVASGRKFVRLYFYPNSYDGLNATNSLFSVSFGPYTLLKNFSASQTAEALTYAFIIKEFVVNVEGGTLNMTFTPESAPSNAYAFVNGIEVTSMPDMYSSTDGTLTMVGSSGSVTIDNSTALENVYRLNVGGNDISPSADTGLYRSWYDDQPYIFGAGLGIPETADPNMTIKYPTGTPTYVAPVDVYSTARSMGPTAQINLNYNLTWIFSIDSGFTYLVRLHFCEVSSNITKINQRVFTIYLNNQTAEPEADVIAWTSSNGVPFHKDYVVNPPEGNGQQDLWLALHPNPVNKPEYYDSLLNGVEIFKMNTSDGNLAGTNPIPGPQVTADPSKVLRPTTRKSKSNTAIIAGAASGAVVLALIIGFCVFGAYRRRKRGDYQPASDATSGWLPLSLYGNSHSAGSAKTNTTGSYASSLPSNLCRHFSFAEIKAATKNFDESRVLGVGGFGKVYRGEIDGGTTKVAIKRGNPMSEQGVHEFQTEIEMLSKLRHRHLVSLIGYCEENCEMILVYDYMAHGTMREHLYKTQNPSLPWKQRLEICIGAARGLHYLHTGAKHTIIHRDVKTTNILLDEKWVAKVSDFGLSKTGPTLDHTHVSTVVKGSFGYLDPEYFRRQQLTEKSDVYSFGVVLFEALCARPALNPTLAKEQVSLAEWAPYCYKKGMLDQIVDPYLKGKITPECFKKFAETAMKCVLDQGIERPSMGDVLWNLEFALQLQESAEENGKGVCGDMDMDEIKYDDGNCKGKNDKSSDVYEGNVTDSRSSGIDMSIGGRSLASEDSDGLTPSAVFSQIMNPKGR

Regarding “HisRALF (RALF, rapid alkalinization factor, N-terminal 6×His fusion peptide) (from UniProt Q9SRY3 72-120)”, the fold binding over the inactive analog HisRALF(Δ2–8) was in the range of 4.5 to 6 fold.
